Earlier results on 1 substance are cited in PMC9313406.

One may read the Kd as the equilibrium constant for the complex coming apart.

The data set has as its target ACE2 (dimeric) (Homo sapiens) (UniProt Q9BYF1). As to the kind of experiment: SPR. A general note: SPR reads the build-up and loss of mass on a sensor chip optically.

Chain of ACE2 (dimeric) (Homo sapiens) (Q9BYF1 18-740): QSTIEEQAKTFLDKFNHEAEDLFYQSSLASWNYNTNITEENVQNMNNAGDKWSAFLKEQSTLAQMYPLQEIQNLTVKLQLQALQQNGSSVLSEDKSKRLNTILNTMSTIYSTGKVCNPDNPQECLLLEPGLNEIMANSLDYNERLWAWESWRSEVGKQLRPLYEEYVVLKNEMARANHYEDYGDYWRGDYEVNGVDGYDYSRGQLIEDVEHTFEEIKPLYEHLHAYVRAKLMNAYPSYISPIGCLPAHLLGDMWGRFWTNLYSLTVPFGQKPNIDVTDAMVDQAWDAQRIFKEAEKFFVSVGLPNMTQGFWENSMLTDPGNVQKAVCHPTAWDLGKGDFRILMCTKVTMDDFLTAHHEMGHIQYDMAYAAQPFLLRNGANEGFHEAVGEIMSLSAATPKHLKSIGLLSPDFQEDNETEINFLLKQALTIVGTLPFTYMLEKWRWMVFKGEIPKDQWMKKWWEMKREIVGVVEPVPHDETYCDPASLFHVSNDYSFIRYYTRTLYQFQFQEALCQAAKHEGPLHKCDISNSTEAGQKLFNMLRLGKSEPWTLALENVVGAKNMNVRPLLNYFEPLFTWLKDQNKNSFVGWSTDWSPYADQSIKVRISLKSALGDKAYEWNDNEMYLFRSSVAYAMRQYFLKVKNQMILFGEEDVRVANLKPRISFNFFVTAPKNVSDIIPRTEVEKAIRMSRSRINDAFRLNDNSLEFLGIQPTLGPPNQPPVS

Turning to Spike protein (from UniProt P0DTC2), the Kd is 0.283 nM.
